Data as given in paper PMC3973307 (Nucleic Acids Research, 2014).

Columns and labels:
[1] = target: mouse mitochondrial RNA polymerase (Polrmt), wild type (mouse, UniProt Q8BKF1 42-1207); test: MST
[2] = target: mouse Δ320-Polrmt (N-terminal truncation mutant lacking the amino-terminal 320 amino acids) (mouse, UniProt Q8BKF1 321-1207); test: MST
Sequence of mouse Δ320-Polrmt (N-terminal truncation mutant lacking the amino-terminal 320 amino acids) (Q8BKF1 321-1207, stated change not applied): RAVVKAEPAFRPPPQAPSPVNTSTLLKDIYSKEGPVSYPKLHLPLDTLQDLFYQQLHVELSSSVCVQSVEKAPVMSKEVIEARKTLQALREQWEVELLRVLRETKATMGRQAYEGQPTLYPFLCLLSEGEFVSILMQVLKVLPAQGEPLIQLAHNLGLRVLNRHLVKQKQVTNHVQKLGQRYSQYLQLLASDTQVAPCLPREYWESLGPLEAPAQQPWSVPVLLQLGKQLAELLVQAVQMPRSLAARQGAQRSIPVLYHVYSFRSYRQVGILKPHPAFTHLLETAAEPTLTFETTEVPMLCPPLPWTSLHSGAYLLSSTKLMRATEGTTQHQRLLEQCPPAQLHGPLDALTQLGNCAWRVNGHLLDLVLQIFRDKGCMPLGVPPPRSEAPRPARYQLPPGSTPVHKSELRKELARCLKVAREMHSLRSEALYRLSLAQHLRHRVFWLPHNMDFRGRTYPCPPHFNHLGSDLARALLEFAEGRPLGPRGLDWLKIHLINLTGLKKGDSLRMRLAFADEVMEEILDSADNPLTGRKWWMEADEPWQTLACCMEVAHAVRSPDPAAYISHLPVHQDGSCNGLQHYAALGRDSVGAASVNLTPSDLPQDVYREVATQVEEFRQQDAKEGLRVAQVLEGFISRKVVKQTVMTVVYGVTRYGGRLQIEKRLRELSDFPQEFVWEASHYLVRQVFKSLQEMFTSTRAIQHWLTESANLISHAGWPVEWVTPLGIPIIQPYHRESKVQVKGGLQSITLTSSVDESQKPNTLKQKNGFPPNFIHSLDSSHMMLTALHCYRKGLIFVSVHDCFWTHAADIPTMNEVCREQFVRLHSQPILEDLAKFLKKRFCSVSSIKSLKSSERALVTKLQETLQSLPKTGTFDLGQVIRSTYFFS

Sequence of mouse mitochondrial RNA polymerase (Polrmt), wild type (Q8BKF1 42-1207): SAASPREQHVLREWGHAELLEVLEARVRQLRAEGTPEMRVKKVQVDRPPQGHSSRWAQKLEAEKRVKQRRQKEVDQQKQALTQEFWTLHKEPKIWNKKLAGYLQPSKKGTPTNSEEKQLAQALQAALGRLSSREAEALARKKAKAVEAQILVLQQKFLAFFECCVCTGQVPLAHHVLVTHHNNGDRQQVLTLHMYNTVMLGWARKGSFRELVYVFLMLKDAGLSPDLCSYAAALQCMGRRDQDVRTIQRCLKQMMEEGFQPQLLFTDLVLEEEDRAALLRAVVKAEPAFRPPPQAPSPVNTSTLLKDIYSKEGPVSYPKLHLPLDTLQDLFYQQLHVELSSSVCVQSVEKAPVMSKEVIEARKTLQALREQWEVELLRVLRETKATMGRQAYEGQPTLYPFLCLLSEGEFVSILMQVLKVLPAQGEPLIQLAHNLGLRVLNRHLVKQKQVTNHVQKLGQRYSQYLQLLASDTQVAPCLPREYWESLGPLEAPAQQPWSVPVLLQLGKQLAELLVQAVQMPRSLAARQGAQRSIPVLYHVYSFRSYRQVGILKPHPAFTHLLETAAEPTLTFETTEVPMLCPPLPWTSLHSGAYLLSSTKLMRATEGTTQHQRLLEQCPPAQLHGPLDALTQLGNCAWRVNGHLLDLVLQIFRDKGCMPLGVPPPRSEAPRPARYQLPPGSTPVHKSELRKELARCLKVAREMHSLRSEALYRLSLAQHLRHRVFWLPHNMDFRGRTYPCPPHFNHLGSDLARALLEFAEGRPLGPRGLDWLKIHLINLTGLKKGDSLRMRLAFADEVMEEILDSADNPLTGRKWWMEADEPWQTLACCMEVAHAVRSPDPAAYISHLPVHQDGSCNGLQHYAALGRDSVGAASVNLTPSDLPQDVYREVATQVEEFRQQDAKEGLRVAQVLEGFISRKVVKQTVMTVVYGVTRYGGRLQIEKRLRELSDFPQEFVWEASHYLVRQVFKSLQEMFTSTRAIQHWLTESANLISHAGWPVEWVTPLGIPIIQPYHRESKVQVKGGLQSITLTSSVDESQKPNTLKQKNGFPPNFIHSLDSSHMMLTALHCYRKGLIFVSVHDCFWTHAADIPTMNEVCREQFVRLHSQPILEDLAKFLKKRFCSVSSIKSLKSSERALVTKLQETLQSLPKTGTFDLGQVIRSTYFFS

B1: mouse mitochondrial transcription factor B2 (Tfb2m) (natural protein, UniProt Q3TL26 44-396, looked up)
chain: SDFNIEPLPDSDLEESSPWTSRNRSEPTRHIACKKAARNLVRDLLEHQNPSRQIILECNPGPGILTGALLKAGARVVAFESEKTFIPHLEPLQRNMDGELQVVHCDFFKMDPRYQEVVRPDVSSQAIFQNLGIKAVPWSAGVPIKVFGILPYKHERRILWKILFDLYSCESIYRYGRVELNMFVSEKEFRKLIATPKRPDLYQVMAVLWQVACDVKFLHMEPWSSFSVHTENGHLEKSKHGESVNLLKQNLYLVRMTPRRTLFTENLSPLNYDIFFHLVKHCFGKRNAPIIRHLRSLSTVDPINILRQIRKNPGDTAARMYPHDFKKLFETIEQSEDSVFKWIYDYCPEDMEF
modifications: amine-labelled with NT-647 dye
[1]
  Kd: 105 ± 1.2 nM
[2]
  Kd: 49.4 ± 1.1 nM
